Measured values from doi:10.1101/2023.04.15.537002, “Identification of merozoite secreted repertoire and immuno-pharmacological inhibition of a novel host-parasite interaction to block malarial infection” (bioRxiv, 2023).

Assays:
[1] = target: T1, recombinant PfRhopH3 C-terminal fragment (PfRhopH3C; 617-865 aa) (Plasmodium falciparum, UniProt Q8I395 617-865); assay: ELISA; PfRhopH3C (200 ng) coated overnight; overlaid with 14-3-3[…] TBD or full length; detected with anti-14-3-3[…] antibodies, O.D.450; details: both partners purified
T1 construct: RhopH3 (high molecular weight rhoptry protein 3) of Plasmodium falciparum, C-terminal portion, residues 617-865 (747 bp); also called rPfRhopH3C; rRhopH3C; source: recombinant, codon-optimized gene in pMTSAra, induced by L-arabinose, purified (Ni-NTA)
T1 sequence: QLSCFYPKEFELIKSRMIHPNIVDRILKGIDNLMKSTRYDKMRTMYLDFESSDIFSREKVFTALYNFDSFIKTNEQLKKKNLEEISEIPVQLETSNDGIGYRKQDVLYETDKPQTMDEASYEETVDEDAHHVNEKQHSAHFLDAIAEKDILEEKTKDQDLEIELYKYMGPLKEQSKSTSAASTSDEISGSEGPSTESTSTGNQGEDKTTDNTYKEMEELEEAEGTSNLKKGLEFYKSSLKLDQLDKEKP

[2] = target: T1, recombinant PfRhopH3 C-terminal …; assay: MST; 14-3-3[…] (10 uM) labelled with NT-647 NHS, titrated with different concentrations of PfRhopH3C; details: both partners purified

Binder	binding result [1]	Kd [2]
recombinant 14-3-3[…] Target Binding Domain (TBD; 94-246 aa) (domain or fragment, human, UniProt Q04917 94-246, looked up, also called 14-3-3[…] TBD; source: recombinant, PCR-amplified into pMTSAra, induced by L-arabinose, purified (Ni-NTA)) ETVCNDVLSLLDKFLIKNCNDFQYESKVFYLKMKGDYYRYLAEVASGEKKNSVVEASEAAYKEAFEISKEQMQPTHPIRLGLALNFSVFYYEIQNAPEQACLLAKQAFDDAIAELDTLNEDSYKDSTLIMQLLRDNLTLWTSDQQDEEAGEGN	binds	–
recombinant human 14-3-3[…] (eta), full length (246 aa) (natural protein, UniProt Q04917 1-246, looked up, labelled with amine-reactive dye NT-647 NHS (for MST only), human 14-3-3 protein eta, gene ID YWHAH, full length, 246 aa (738 bp); the discussion names it eta; also called 14-3-3[…] full length; r14-3-3[…]; source: recombinant, codon-optimized gene in pET-28a(+), induced by IPTG, purified (Ni-NTA)) MGDREQLLQRARLAEQAERYDDMASAMKAVTELNEPLSNEDRNLLSVAYKNVVGARRSSWRVISSIEQKTMADGNEKKLEKVKAYREKIEKELETVCNDVLSLLDKFLIKNCNDFQYESKVFYLKMKGDYYRYLAEVASGEKKNSVVEASEAAYKEAFEISKEQMQPTHPIRLGLALNFSVFYYEIQNAPEQACLLAKQAFDDAIAELDTLNEDSYKDSTLIMQLLRDNLTLWTSDQQDEEAGEGN	–	66 nM
